Source: patent US20220073646A1 (Hoffmann-La Roche, published 2022)
Changes are numbered by the printed parent chain. Read-outs that look alike come from different tables or passages of the source.

What was measured:
[1] = biological target: recombinant cynomolgus 4-1BB Fc(kih) (cynomolgus, UniProt P0DOX5 223-449 = IgG part, biotin on C-terminal Avi tag where used biotinylated); test: SPR, captured IgG, cyno 4-1BB Fc(kih) analyte
human 4-1BB on cells [2] = biological target: T1, human 4-1BB on cells (human, UniProt Q07011 24-255); test: flow cytometry, activated human CD8 T cells
T1 construct: also called HeLa-hu4-1BB-NF-kB-luc clone 26

[3] = biological target: T2, recombinant human 4-1BB Fc(kih) (human, UniProt P0DOX5 223-449 = IgG part, biotin on C-terminal Avi tag where used biotinylated); test: SPR, captured IgG, 4-1BB Fc(kih) analyte
T2 construct: also called hu4-1BB; biotinylated human 4-1BB

[4] = biological target: mouse 4-1BB on activated mouse splenocytes (mouse, UniProt P20334 24-256); test: flow cytometry, activated mouse T cells
Sequence of mouse 4-1BB on activated mouse splenocytes (P20334 24-256 limits assumed): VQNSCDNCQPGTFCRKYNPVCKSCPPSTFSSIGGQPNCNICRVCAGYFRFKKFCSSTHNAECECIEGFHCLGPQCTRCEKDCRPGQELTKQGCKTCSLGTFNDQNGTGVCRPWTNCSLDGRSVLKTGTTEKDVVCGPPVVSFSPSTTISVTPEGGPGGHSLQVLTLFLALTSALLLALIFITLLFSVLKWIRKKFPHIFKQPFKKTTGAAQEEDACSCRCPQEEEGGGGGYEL

human 4-1BB on cells [5] = biological target: T1, human 4-1BB on cells; test: cell-based or functional assay
[6] = biological target: T3, cynomolgus 4-1BB on activated cynomolgus PBMC (cynomolgus, UniProt Q07011 24-255 (human entry)); test: flow cytometry, activated cynomolgus PBMC
T3 chain: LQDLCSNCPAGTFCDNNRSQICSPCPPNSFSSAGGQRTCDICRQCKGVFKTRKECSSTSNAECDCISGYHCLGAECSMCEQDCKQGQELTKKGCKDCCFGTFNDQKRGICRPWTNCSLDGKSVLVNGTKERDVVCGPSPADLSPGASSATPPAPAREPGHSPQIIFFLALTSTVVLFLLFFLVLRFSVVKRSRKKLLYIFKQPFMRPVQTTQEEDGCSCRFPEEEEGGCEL

[7] = biological target: T4, human fibroblast activation protein (huFAP) on cells (human, UniProt Q12884 1-760); test: flow cytometry, NIH/3T3-huFAP clone 19
T4 construct: also called NIH/3T3-huFAP clone 39; NIH/3T3-huFAP clone 19

human 4-1BB on cells [8] = biological target: T1, human 4-1BB on cells; test: cell-based or functional assay; remark: listed apart in the source
human 4-1BB on cells [9] = biological target: T1, human 4-1BB on cells; test: flow cytometry, activated human CD8+ T cells
human OX40 on cells [10] = biological target: T5, human OX40 on cells (human, UniProt P43489 29-277); test: flow cytometry, activated human CD4 T cells
T5 sequence: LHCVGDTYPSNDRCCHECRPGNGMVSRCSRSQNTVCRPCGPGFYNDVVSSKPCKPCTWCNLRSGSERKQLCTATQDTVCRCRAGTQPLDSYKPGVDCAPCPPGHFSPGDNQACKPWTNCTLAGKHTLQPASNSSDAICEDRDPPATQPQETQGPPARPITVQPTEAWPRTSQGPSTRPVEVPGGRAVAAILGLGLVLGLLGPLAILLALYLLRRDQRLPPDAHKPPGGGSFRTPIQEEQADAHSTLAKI

[11] = biological target: T6, recombinant human OX40 Fc(kih) (human, UniProt P0DOX5 223-449 = IgG part, biotin on C-terminal Avi tag where used biotinylated); test: SPR, captured IgG, OX40 Fc(kih) analyte
T6 construct: antigen Fc knob chain plus Fc hole chain; also called monomeric human OX40 antigen Fc(kih) fusion; biotinylated human OX40

human OX40 on cells [12] = biological target: T5, human OX40 on cells; test: cell-based or functional assay
[13] = biological target: T7, dimeric human OX40 Fc fusion with a C-terminal Ha tag (human); test: SPR, OX40 Fc held on OX40 ligand
T7 construct: also called recombinant human Ox40 Fc; huOx40-Fc

human OX40 on cells [14] = biological target: T5, human OX40 on cells; test: cell-based or functional assay; remark: listed apart in the source
[15] = biological target: T8, recombinant murine OX40 (cleaved by AcTEV digestion) (murine, UniProt P47741 20-211); test: SPR, captured IgG, AcTEV-cleaved murine OX40 analyte
T8 construct: Fc removed from murine OX40 Fc(kih)
T8 sequence: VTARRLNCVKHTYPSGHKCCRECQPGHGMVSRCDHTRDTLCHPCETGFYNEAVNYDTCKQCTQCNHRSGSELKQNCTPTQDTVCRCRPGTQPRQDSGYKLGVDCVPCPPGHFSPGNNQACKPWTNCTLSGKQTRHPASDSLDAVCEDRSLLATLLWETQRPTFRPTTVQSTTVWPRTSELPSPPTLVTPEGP

[16] = biological target: recombinant murine OX40 Fc(kih) (murine, UniProt P0DOX5 223-449 = IgG part, biotin on C-terminal Avi tag); test: SPR avidity format, murine OX40 Fc(kih) on SA chip
[17] = biological target: T9, recombinant human OX40 His (human); test: SPR, captured IgG, OX40 His analyte
T9 construct: ectodomain with avi and hexahistidine tag; also called human Ox40 avi His
T9 chain: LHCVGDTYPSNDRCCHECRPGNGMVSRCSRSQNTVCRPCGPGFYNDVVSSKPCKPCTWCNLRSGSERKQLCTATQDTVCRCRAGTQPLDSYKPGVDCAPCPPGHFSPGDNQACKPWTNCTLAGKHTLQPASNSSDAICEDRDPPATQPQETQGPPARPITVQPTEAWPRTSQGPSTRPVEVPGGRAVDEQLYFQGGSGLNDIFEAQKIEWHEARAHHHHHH

[18] = biological target: recombinant cynomolgus OX40 Fc(kih) (cynomolgus, UniProt P0DOX5 223-449 = IgG part, biotin on C-terminal Avi tag where used biotinylated); test: SPR, captured IgG, cyno OX40 Fc(kih) analyte
[19] = biological target: T10, cynomolgus OX40 on activated cynomolgus PBMC (cynomolgus, UniProt P43489 29-214 (human entry)); test: flow cytometry, activated cynomolgus CD4 T cells
T10 construct: whole, on cells
T10 chain: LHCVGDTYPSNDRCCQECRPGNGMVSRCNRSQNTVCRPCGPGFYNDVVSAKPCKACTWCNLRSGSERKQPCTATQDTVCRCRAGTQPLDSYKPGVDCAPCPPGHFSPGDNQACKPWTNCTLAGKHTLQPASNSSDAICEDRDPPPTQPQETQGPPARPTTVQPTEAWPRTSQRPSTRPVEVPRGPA

[20] = biological target: T11, human FAP (His-tagged ectodomain) (human, UniProt Q12884 27-760); test: SPR, human FAP as second analyte
T11 construct: SPR texts say 'human FAP' or 'His-tagged ... dimeric FAP'; also called hu FAP; human FAP (analyte 2)

human OX40 on cells [21] = biological target: T5, human OX40 on cells; test: flow cytometry, activated human CD4 T cells; remark: listed apart in the source
[22] = biological target: T10, cynomolgus OX40 on activated cynomolgus …; test: flow cytometry, activated cynomolgus CD4 T cells
[23] = biological target: T12, recombinant murine 4-1BB Fc(kih) (murine, UniProt P0DOX5 223-449 = IgG part, biotin on C-terminal Avi tag where used biotinylated); test: phage display, Fab screening
T12 construct: also called mu4-1BB

[24] = biological target: T13, recombinant human GITR Fc(kih) (human, UniProt P0DOX5 223-449 = IgG part, biotin on C-terminal Avi tag where used biotinylated); test: SPR, GITR Fc(kih) on SA chip, FAP second analyte
T13 construct: also called hu GITR-Fc; human monomeric GITR-Fc fusion

[25] = biological target: T4, human fibroblast activation protein …; test: flow cytometry, 3T3-huFAP
[26] = biological target: T11, human FAP (His-tagged ectodomain); test: SPR, GITR Fc(kih) on SA chip, FAP second analyte
[27] = biological target: T14, human GITR on HEK cells (HEK-GITR) (human, UniProt Q9Y5U5 26-241); test: flow cytometry, HEK-GITR
T14 construct: also called cell surface expressed human GITR
T14 sequence: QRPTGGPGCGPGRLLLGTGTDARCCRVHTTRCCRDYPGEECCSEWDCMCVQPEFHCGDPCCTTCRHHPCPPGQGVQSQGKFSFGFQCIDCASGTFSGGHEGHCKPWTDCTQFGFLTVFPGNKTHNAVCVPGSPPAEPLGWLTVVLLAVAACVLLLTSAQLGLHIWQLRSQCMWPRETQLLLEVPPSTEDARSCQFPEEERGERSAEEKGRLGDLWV

[28] = biological target: T6, recombinant human OX40 Fc(kih); test: phage display, Fab ELISA

B1: 9B11 P329GLALA IgG1 (antibody, V domains shown)
VH: QVQLVQSGAEVKKPGSSVKVSCKASGGTFSSYAISWVRQAPGQGLEWMGGIIPIFGTANYAQKFQGRVTITADKSTSTAYMELSSLRSEDTAVYYCARSSGAYPGYFDYWGQGTTVTVSS
VL: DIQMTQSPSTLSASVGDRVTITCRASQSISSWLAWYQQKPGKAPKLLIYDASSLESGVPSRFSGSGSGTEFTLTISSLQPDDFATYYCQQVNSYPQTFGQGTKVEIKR
notes: anti-4-1BB
- Kd [1]: 78 nM
- koff [1]: 0.002 s⁻¹
- kon [1]: 26000 M⁻¹ s⁻¹
- EC50 (human 4-1BB on cells [2]): 4.49 nM
- Kd [3]: 140 nM
- koff [3]: 0.0039 s⁻¹
- kon [3]: 27000 M⁻¹ s⁻¹
- binding result [4]: no binding
- EC50 of increase of IFNγ secretion in activated CD8+ T cells (surface-immobilized IgG) (human 4-1BB on cells [5]): 0.12 nM
- binding result [6]: binds

B2: 12B3/FAP P329GLALA IgG1 2+2 (bispecific antibody)
heavy: not shown
light 1: not shown
light 2: EIVLTQSPGTLSLSPGERATLSCRASQSVSRSYLAWYQQKPGQAPRLLIIGASTRATGIPDRFSGSGSGTDFTLTISRLEPEDFAVYYCQQGQVIPPTFGQGTKVEIKSSASTKGPSVFPLAPSSKSTSGGTAALGCLVKDYFPEPVTVSWNSGALTSGVHTFPAVLQSSGLYSLSSVVTVPSSSLGTQTYICNVNHKPSNTKVDKKVEPKSCD
notes: also called 12B3×FAP (28H1) 2+2
- EC50 [7]: 12.2 nM
- EC50 of NFκB/luciferase activation, 4-1BB reporter HeLa with NIH/3T3-huFAP clone 19 (human 4-1BB on cells [8]): 0.2 nM
- EC50 (human 4-1BB on cells [9]): 2 nM

B3: 20B7 P329GLALA IgG1 (antibody, V domains shown)
VH: QVQLVQSGAEVKKPGSSVKVSCKASGGTFSSYAISWVRQAPGQGLEWMGGIIPIFGTANYAQKFQGRVTITADKSTSTAYMELSSLRSEDTAVYYCARVNYPYSYWGDFDYWGQGTTVTVSS
VL: DIQMTQSPSTLSASVGDRVTITCRASQSISSWLAWYQQKPGKAPKLLIYDASSLESGVPSRFSGSGSGTEFTLTISSLQPDDFATYYCQQYQAFSLTFGQGTKVEIKR
notes: anti-OX40
- EC50 (human OX40 on cells [10]): 1.64 nM
- Kd [11]: 42 nM
- koff [11]: 0.0013 s⁻¹
- kon [11]: 32000 M⁻¹ s⁻¹
- EC50 of rescuing suboptimal TCR stimulation with plate-immobilized anti-OX40 binder (preactivated human CD4 T cells) (human OX40 on cells [12]): 0.09 nM
- binding result [13]: binds
- EC50 of NFκB activation in HeLa_hOx40_NFκB_luc1 reporter cells with secondary anti-human IgG Fcγ antibody (human OX40 on cells [14]): 2.27 nM
- Kd [15]: 360 nM
- koff [15]: 0.018 s⁻¹
- kon [15]: 49000 M⁻¹ s⁻¹
- binding result [16]: binds
- Kd [17]: 5.6 nM
- koff [17]: 0.00066 s⁻¹
- kon [17]: 120000 M⁻¹ s⁻¹
- Kd [18]: 1100 nM
- koff [18]: 0.0166 s⁻¹
- kon [18]: 15700 M⁻¹ s⁻¹
- EC50 [19]: 1.52 nM

B4: OX40(49B4)/DP47 P329GLALA IgG1 4+2 (bispecific antibody)
heavy: not shown
light 1: DIQMTQSPSTLSASVGDRVTITCRASQSISSWLAWYQQKPGKAPKLLIYDASSLESGVPSRFSGSGSGTEFTLTISSLQPDDFATYYCQQYSSQPYTFGQGTKVEIKRTVAAPSVFIFPPSDRKLKSGTASVVCLLNNFYPREAKVQWKVDNALQSGNSQESVTEQDSKDSTYSLSSTLTLSKADYEKHKVYACEVTHQGLSSPVTKSFNRGEC
light 2: not shown
notes: also called 4+2 (49B4/DP47); untargeted 4+2 construct
- binding result [20]: no binding (tested: 250 nM)
- EC50 (human OX40 on cells [21]): 0.11 nM
- EC50 [22]: 0.07 nM

B5: clone 20G2 Fab (Fab, V domains shown)
VH: B1 VH with S100Y, G101Y, A102W, Y103E, P104S, G105Y, Y106P
VL: DIQMTQSPSTLSASVGDRVTITCRASQSISSWLAWYQQKPGKAPKLLIYDASSLESGVPSRFSGSGSGTEFTLTISSLQPDDFATYYCQQQHSYYTFGQGTKVEIK
notes: phage library Fab with CH1/CL and tags
- binding result [23]: binds

B6: (GITR-FAP) [8A06] 4+1 construct (bispecific antibody, human IgG1, lambda, L234A L235A)
heavy 1: not shown
heavy 2: not shown
light: SSELTQDPAVSVALGQTVRITCQGDSLRSYYASWYQQKPGQAPVLVIYGKNNRPSGIPDRFSGSSSGNTASLTITGAQAEDEADYYCNSPQTSGSAVFGGGTKLTVLGQPKAAPSVTLFPPSSEELQANKATLVCLISDFYPGAVTVAWKADSSPVKAGVETTTPSKQSNNKYAASSYLSLTPEQWKSHRSYSCQVTHEGSTVEKTVAPTECS
- binding result [24]: binds

B7: (GITR-FAP) [8A06] 4+2 construct (bispecific antibody, human IgG1, lambda, L234A L235A)
heavy: not shown
light 1: B6 light
light 2: EIVLTQSPGTLSLSPGERATLSCRASQSVSRSYLAWYQQKPGQAPRLLIIGASTRATGIPDRFSGSGSGTDFTLTISRLEPEDFAVYYCQQGQVIPPTFGQGTKVEIKSSASTKGPSVFPLAPSSKSTSGGTAALGCLVKDYFPEPVTVSWNSGALTSGVHTFPAVLQSSGLYSLSSVVTVPSSSLGTQTYICNVNHKPSNTKVDKKVEPKSC
- binding result [25]: binds
- binding result [26]: binds
- EC50 [27]: 3.85 nM

B8: clone 17A9 Fab (Fab, V domains shown)
VH: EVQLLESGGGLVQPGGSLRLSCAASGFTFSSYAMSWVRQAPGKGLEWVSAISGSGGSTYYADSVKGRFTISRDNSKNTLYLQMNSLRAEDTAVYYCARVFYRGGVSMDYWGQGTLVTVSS
VL: SSELTQDPAVSVALGQTVRITCQGDSLRSYYASWYQQKPGQAPVLVIYGKNNRPSGIPDRFSGSSSGNTASLTITGAQAEDEADYYCNSRVMPHNRVFGGGTKLTV
notes: as for B5
- binding result [28]: binds
